From paper PMC9764456 (Cell reports, 2022)

Molecular target: the molecule itself
Experiment: negative stain electron microscopy

B1: peroxiredoxin PRDX2 (enzyme, human (endogenous in RBCs), UniProt P32119 1-198, looked up)
chain: MASGNARIGKPAPDFKATAVVDGAFKEVKLSDYKGKYVVLFFYPLDFTFVCPTEIIAFSNRAEDFRKLGCEVLGVSVDSQFTHLAWINTPRKEGGLGPLNIPLLADVTRRLSEDYGVLKTDEGIAYRGLFIIDGKGVLRQITVNDLPVGRSVDEALRLVQAFQYTDEHGEVCPAGWKPGSDTIKPNVDDSKEYFSKHN
stoichiometry N: 10
